Publication PMC11301264, “Bactericidal human monoclonal antibody 1B1 shows specificity for meningococcal factor H binding protein variant 2 and displaces human factor H” (FASEB BioAdvances, 2024)

Tests used:
[1] = target: T1, factor H binding protein (fHbp) variant 2.16, wild type, recombinant (Neisseria meningitidis serogroup B, …, strain); assay: BLI; mAb (1B1 or 4B3, 10 mcg/mL) captured via Fc on Anti-Fc Human (AHC) biosensors; fHbp in solution, 150 to 1 nM; 30°C; 1 x PBS, 1% (w/v) BSA; 1:1 fit; settings: both partners purified
T1 construct: Construct described in earlier work; vector pET-21b is named for the template plasmid; also called fHbp var 2; v2.16
T1 chain: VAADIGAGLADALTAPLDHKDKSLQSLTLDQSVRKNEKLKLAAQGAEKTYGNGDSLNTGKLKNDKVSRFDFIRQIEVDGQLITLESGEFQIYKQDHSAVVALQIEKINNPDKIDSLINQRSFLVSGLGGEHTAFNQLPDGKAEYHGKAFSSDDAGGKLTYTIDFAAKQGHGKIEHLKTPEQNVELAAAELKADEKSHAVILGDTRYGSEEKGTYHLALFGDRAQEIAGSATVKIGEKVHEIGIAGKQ

[2] = target: fHbp variant 3.28 on live meningococci of MenB strain M1239 (Neisseria meningitidis (endogenous in strain M1239)) (UniProt E6MV22)
[3] = target: fHbp variant 1.1 on live meningococci of MenB strain MC58 (Neisseria meningitidis (endogenous in strain MC58)) (UniProt Q9JXV4)

B1: human monoclonal antibody 1B1, full-length IgG1 (antibody, V domains shown)
VH: EVQLVESGGNLVQPGGSLRLSCAASGFTFSSYSMNWVRQAPGKGLEWVSYISSSSSTIYYADSVKGRFTISRDNAKNSLYLQMNSLRAEDTAVYYCARVAAGLKDWGQGTLVTVSS
VL: EIVLTQSPGTLSLSPGERATLSCRASQSISSSYLAWYQQKPGQAPRLLIFGASSRATGIPDRFSGSGSGTGFTLTISRLEPEDFAVYYCQHYDSSLPMTFGQGTKVEIK
notes: also called humAb 1B1; mAb 1B1; source: mammalian cells, recombinant, purified as described previously
Q: For B1, which Kd [1] is on record?
A: 0.24 nM

Q: What about the hSBA (human complement) titer against strain 5/99DD complemented with fHbp 3.28 [2] of the same binder?
A: < 4 titer

Q: What about the rSBA (rabbit complement) titer against strain 5/99DD complemented with fHbp 3.28 [2] of the same binder?
A: < 16 titer

Q: And the hSBA (human complement) titer against MenB strain MC58 [3]?
A: < 4 titer

Q: What about the rSBA (rabbit complement) titer against MenB strain MC58 [3] of the same binder?
A: < 16 titer
